Data set [1] concerns the target T1, MdWRKY70L (Malus domestica, UniProt A0A7S5EAY7 1-303).
T1 sequence: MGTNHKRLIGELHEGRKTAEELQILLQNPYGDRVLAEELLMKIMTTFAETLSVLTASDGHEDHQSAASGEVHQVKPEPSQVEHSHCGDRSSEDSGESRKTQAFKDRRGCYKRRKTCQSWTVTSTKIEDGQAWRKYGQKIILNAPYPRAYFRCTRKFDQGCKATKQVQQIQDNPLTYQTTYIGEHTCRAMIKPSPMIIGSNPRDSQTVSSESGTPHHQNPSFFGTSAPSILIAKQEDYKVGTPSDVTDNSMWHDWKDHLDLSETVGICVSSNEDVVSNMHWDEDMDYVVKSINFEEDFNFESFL
Put plainly: EMSA; LightShift Chemiluminescent EMSA kit (Thermo); buffer, salt, pH and temperature not stated. The following applies: protein: recombinant; tags: GST (Results); His (EMSA Methods, pET32a); label: 3' biotin, both strands; blunt.

Data set [2] addresses T1, MdWRKY70L. In words: competition; 25x, 50x, 100x cold probe vs hot probe N1; LightShift Chemiluminescent EMSA kit (Thermo); buffer, salt, pH and temperature not stated. Particulars: protein: recombinant; tags: GST (Results); His (EMSA Methods, pET32a); blunt.
For data set [3], the target named is T1, MdWRKY70L. Put plainly: competition; 25x, 50x, 100x cold probe vs hot probe N3; LightShift Chemiluminescent EMSA kit (Thermo); buffer, salt, pH and temperature not stated. Particulars: protein: recombinant; tags: GST (Results); His (EMSA Methods, pET32a); blunt.

Residue numbers refer to the chain shown, from its start.

B1: MdZAT12 W-box hot probe (dsDNA)
DNA 1: CATTGATCTGGATTTCTGTGCTGACTCAGACTCATCGTGGATGCTT
DNA 2: AAGCATCCACGATGAGTCTGAGTCAGCACAGAAATCCAGATCAATG
As to B1, in the data set with MdWRKY70L [1], the binding result was “binds”.

B2: MdZAT12 W-box mutant probe (dsDNA)
DNA 1: B1 DNA 1 with T22G, A24C, T26G
DNA 2: B1 DNA 2 with A21C, T23G, A25C
For the molecule B2, in the data set with MdWRKY70L [1], the binding result was “no binding”.

B3: MdZAT12 W-box cold probe (dsDNA)
DNA 1: B1 DNA 1
DNA 2: B1 DNA 2
Consider B3, for which the binding result with MdWRKY70L [2] is reported as “binds”.

B4: MdSAG101 W-box hot probe (dsDNA)
DNA 1: TCTATATAAAGAGAGACATATTGACCATTCCGGTATCCTCTTCTCT
DNA 2: AGAGAAGAGGATACCGGAATGGTCAATATGTCTCTCTTTATATAGA
In the case of B4, in the data set with MdWRKY70L [1], the binding result was “binds”.

B5: MdSAG101 W-box cold probe (dsDNA)
DNA 1: B4 DNA 1
DNA 2: B4 DNA 2
With B5, the binding result with MdWRKY70L [3] was “binds”.

B6: MdSAG101 W-box mutant probe (dsDNA)
DNA 1: B4 DNA 1 with T22C, A24G, C26T
DNA 2: B4 DNA 2 with G21A, T23C, A25G
For B6, in the data set with MdWRKY70L [1], the binding result was “no binding”.
